Source: the supplement of paper PMC11316812
± gives the standard deviation of the averaged measurements.

Legend:
hTERT-HMEC = experiment: percentage of EdU-negative (G0-arrested) nuclei per well, 72 h; higher = more G0 arrest; conditions: reference: sequence is the full UniProt precursor, the tested protein was the secreted form or ectodomain
MCF7 = experiment: as above; conditions: reference: sequence is the full UniProt precursor, the tested protein was the secreted form or ectodomain
[1] = protein concentration 0.0085 µM
[2] = protein concentration 0.0225 µM
[3] = protein concentration 0.0308571 µM
[4] = protein concentration 0.308571 µM
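Also: secreted proteins added to cultured cells, EdU pulse at the end, nuclei found by Hoechst imaging, EdU status from nuclear versus surrounding ring intensity ratio, PBS as neutral control.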

Row | Sequence | percentage of EdU-negative (hTERT-HMEC; [2]) [%] | percentage of EdU-negative (hTERT-HMEC; protein concentration 0.225 µM) [%] | percentage of EdU-negative (MCF7; [2]) [%] | percentage of EdU-negative (MCF7; protein concentration 0.225 µM) [%] | further results
1 | MVSQALRLLCLLLGLQGCLAAGGVAKASGGETRDMPWKPGPHRVFVTQEEAHGVLHRRRRANAFLEELRPGSLERECKEEQCSFEEAREIFKDAERTKLFWISYSDGDQCASSPCQNGGSCKDQLQSYICFCLPAFEGRNCETHKDDQLICVNENGGCEQYCSDHTGTKRSCRCHEGYSLLADGVSCTPTVEYPCGKIPILEKRNASKPQGRIVGGKVCPKGECPWQVLLLVNGAQLCGGTLINTIWVVSAAHCFDKIKNWRNLIAVLGEHDLSEHDGDEQSRRVAQVIIPSTYVPGTTNHDIALLRLHQPVVLTDHVVPLCLPERTFSERTLAFVRFSLVSGWGQLLDRGATALELMVLNVPRLMTQDCLQQSRKVGDSPNITEYMFCAGYSDGSKDSCKGDSGGPHATHYRGTWYLTGIVSWGQGCATVGHFGVYTRVSQYIEWLQKLMRSEPRPGVLLRAPFP | – | – | – | – | percentage of EdU-negative (hTERT-HMEC; [1]): 4.77 ± 0.36%; percentage of EdU-negative (hTERT-HMEC; protein concentration 0.085 µM): 5.93 ± 1.7%; percentage of EdU-negative (MCF7; [1]): 24.3 ± 4.2%; percentage of EdU-negative (MCF7; protein concentration 0.085 µM): 24.2 ± 0.32%
2 | MWWRVLSLLAWFPLQEASLTNHTETITVEEGQTLTLKCVTSLRKNSSLQWLTPSGFTIFLNEYPALKNSKYQLLHHSANQLSITVPNVTLQDEGVYKCLHYSDSVSTKEVKVIVLATPFKPILEASVIRKQNGEEHVVLMCSTMRSKPPPQITWLLGNSMEVSGGTLHEFETDGKKCNTTSTLIIHTYGKNSTVDCIIRHRGLQGRKLVAPFRFEDLVTDEETASDALERNSLSSQDPQQPTSTVSVTEDSSTSEIDKEEKEQTTQDPDLTTEANPQYLGLARKKSGILLLTLVSFLIFILFIIVQLFIMKLRKAHVIWKKENEVSEHTLESYRSRSNNEETSSEEKNGQSSHPMRCMNYITKLYSEAKTKRKENVQHSKLEEKHIQVPESIV | 4.57 ± 0.2 | 4.66 ± 0.87 | 25.3 ± 1.9 | 25.7 ± 2.4 | –
3 | MLRAALPALLLPLLGLAAAAVADCPSSTWIQFQDSCYIFLQEAIKVESIEDVRNQCTDHGADMISIHNEEENAFILDTLKKQWKGPDDILLGMFYDTDDASFKWFDNSNMTFDKWTDQDDDEDLVDTCAFLHIKTGEWKKGNCEVSSVEGTLCKTAIPYKRKYLSDNHILISALVIASTVILTVLGAIIWFLYKKHSDSRFTTVFSTAPQSPYNEDCVLVVGEENEYPVQFD [Q8IX05] | 4.48 ± 0.56 | 5.29 ± 0.55 | 25.83 ± 0.12 | 25.38 ± 0.14 | –
4 | MQLPLALCLVCLLVHTAFRVVEGQGWQAFKNDATEIIPELGEYPEPPPELENNKTMNRAENGGRPPHHPFETKDVSEYSCRELHFTRYVTDGPCRSAKPVTELVCSGQCGPARLLPNAIGRGKWWRPSGPDFRCIPDRYRAQRVQLLCPGGEAPRARKVRLVASCKCKRLTRFHNQSELKDFGTEAARPQKGRKPRPRARSAKANQAELENAY [Q9BQB4] | 5.07 ± 1.1 | 18.6 ± 2.6 | 28.1 ± 1.4 | 34 ± 2 | –
5 | MPLGLLWLGLALLGALHAQAQDSTSDLIPAPPLSKVPLQQNFQDNQFQGKWYVVGLAGNAILREDKDPQKMYATIYELKEDKSYNVTSVLFRKKKCDYWIRTFVPGCQPGEFTLGNIKSYPGLTSYLVRVVSTNYNQHAMVFFKKVSQNREYFKITLYGRTKELTSELKENFIRFSKSLGLPENHIVFPVPIDQCIDG | – | – | – | – | percentage of EdU-negative (hTERT-HMEC; [3]): 4.56 ± 0.62%; percentage of EdU-negative (hTERT-HMEC; [4]): 8.76 ± 0.27%; percentage of EdU-negative (MCF7; [3]): 26.8 ± 1.9%; percentage of EdU-negative (MCF7; [4]): 28.2 ± 1.9%
6 | MKGFTATLFLWTLIFPSCSGGGGGKAWPTHVVCSDSGLEVLYQSCDPLQDFGFSVEKCSKQLKSNINIRFGIILREDIKELFLDLALMSQGSSVLNFSYPICEAALPKFSFCGRRKGEQIYYAGPVNNPEFTIPQGEYQVLLELYTEKRSTVACANATIMCS | 4.8 ± 0.29 | 6.1 ± 0.31 | 28.5 ± 0.69 | 29.008 ± 0.011 | –
7 | MRWRTILLQYCFLLITCLLTALEAVPIDIDKTKVQNIHPVESAKIEPPDTGLYYDEYLKQVIDVLETDKHFREKLQKADIEEIKSGRLSKELDLVSHHVRTKLDELKRQEVGRLRMLIKAKLDSLQDIGMDHQALLKQFDHLNHLNPDKFESTDLDMLIKAATSDLEHYDKTRHEEFKKYEMMKEHERREYLKTLNEEKRKEEESKFEEMKKKHENHPKVNHPGSKDQLKEVWEETDGLDPNDFDPKTFFKLHDVNSDGFLDEQELEALFTKELEKVYDPKNEEDDMVEMEEERLRMREHVMNEVDTNKDRLVTLEEFLKATEKKEFLEPDSWETLDQQQFFTEEELKEYENIIALQENELKKKADELQKQKEELQRQHDQLEAQKLEYHQVIQQMEQKKLQQGIPPSGPAGELKFEPHI | 5.36 ± 0.7 | 5.32 ± 1.9 | 24 ± 0.28 | 26 ± 1.5 | –
8 | MKLHYVAVLTLAILMFLTWLPESLSCNKALCASDVSKCLIQELCQCRPGEGNCSCCKECMLCLGALWDECCDCVGMCNPRNYSDTPPTSKSTVEELHEPIPSLFRALTEGDTQLNWNIVSFPVAEELSHHENLVSFLETVNQPHHQNVSVPSNNVHAPYSSDKEHMCTVVYFDDCMSIHQCKISCESMGASKYRWFHNACCECIGPECIDYGSKTVKCMNCMF [Q9GZX9] | 4.64 ± 0.11 | 12.59 ± 0.086 | 23.8 ± 4.6 | 28.8 ± 0.54 | –
9 | MPGLRRDRLLTLLLLGALLSADLYFHLWPQVQRQLRPRERPRGCPCTGRASSLARDSAAAASDPGTIVHNFSRTEPRTEPAGGSHSGSSSKLQALFAHPLYNVPEEPPLLGAEDSLLASQEALRYYRRKVARWNRRHKMYREQMNLTSLDPPLQLRLEASWVQFHLGINRHGLYSRSSPVVSKLLQDMRHFPTISADYSQDEKALLGACDCTQIVKPSGVHLKLVLRFSDFGKAMFKPMRQQRDEETPVDFFYFIDFQRHNAEIAAFHLDRILDFRRVPPTVGRIVNVTKEILEVTKNEILQSVFFVSPASNVCFFAKCPYMCKTEYAVCGNPHLLEGSLSAFLPSLNLAPRLSVPNPWIRSYTLAGKEEWEVNPLYCDTVKQIYPYNNSQRLLNVIDMAIFDFLIGNMDRHHYEMFTKFGDDGFLIHLDNARGFGRHSHDEISILSPLSQCCMIKKKTLLHLQLLAQADYRLSDVMRESLLEDQLSPVLTEPHLLALDRRLQTILRTVEGCIVAHGQQSVIVDGPVEQLAPDSGQANLTS [Q96MK3] | – | – | – | – | percentage of EdU-negative (hTERT-HMEC; protein concentration 0.014 µM): 6.29 ± 0.36%; percentage of EdU-negative (hTERT-HMEC; protein concentration 0.14 µM): 27.9 ± 9.3%; percentage of EdU-negative (MCF7; protein concentration 0.014 µM): 24 ± 3.4%; percentage of EdU-negative (MCF7; protein concentration 0.14 µM): 30.6 ± 0.74%
